Earlier results on one substance are cited in PMC6235721.

For this data set, the target named is FabI (Escherichia coli) (UniProt P0AEK4).
Chain of UniProt P0AEK4 (P0AEK4 2-262): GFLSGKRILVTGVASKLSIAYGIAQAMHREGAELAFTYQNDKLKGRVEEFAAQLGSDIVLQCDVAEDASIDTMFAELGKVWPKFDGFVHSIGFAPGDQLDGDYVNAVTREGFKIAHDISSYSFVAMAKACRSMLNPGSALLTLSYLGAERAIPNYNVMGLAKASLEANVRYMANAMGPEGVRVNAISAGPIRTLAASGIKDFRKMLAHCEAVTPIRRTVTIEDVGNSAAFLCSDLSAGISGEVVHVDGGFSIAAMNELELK

In general, Kd refers to a measure of binding affinity in units of concentration. crypto-58-AcpP (from UniProt P0A6A8): the equilibrium dissociation constant (Kd) is 712 nM.
